T1: recombinant human TROP-2/human IgG Fc fused form (R&D Systems, Inc.) (human, UniProt P09758 27-274, limits assumed)
T1 construct: Bought reagent; also called TROP-2/Fc; not shown: human IgG Fc
T1 sequence (looked up): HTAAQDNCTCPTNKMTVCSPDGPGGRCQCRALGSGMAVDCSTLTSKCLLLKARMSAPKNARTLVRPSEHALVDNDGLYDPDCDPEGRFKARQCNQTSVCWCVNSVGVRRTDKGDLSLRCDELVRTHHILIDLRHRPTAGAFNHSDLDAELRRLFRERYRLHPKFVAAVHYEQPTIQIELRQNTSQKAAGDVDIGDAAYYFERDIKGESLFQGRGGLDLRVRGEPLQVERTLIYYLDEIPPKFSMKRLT


Tests used:
[1] = molecular target: T2, cynomolgus monkey CD3 on cynomolgus monkey PBMC or T cell line HSC-F (cynomolgus monkey, UniProt Q95LI5 22-198); experiment: flow cytometry on cynomolgus monkey PBMC
T2 construct: whole, on cells; Native CD3 complex on monkey T cells; also called cynomolgus monkey CD3 (PBMC); cynomolgus monkey CD3 antigen
T2 sequence (Q95LI5 22-198): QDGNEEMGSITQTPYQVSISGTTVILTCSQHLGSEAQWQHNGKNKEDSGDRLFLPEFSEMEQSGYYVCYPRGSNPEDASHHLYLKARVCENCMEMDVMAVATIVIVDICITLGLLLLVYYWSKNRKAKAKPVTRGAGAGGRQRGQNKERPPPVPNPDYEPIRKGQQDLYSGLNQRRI

human CD3 on human PBMC [2] = molecular target: T3, human CD3 on human PBMC (human, UniProt P07766 23-207); experiment: flow cytometry on human PBMC
T3 construct: Native CD3 complex on T cells in PBMC; the other chains of the complex are native; also called human CD3 (PBMC)

[3] = molecular target: T4, CD3 immobilized on a sensor chip (Example 7)-1-2); experiment: SPR (BIAcore T-200), CD3 immobilized, scFv injected at five concentrations; concentration giving 1/2 Rmax
T4 construct: the text says only 'CD3 immobilized on a sensor chip'; also called human CD3
Procedure: Five different concentrations of the scFv were injected into CD3 immobilized on a sensor chip. Rmax was estimated from the resulting response, and the antibody concentration that reached 1/2 thereof was defined as the dissociation constant of the scFv for CD3.

human CD3 on human PBMC [4] = molecular target: T3, human CD3 on human PBMC; experiment: flow cytometry on human PBMC, Penta-His Alexa Fluor 488 detection (rMFI)
Procedure: Commercially available human PBMC (Cellular Technology Ltd. (CTL)) was adjusted to an appropriate concentration with PBS containing 5% FBS. LIVE/DEAD Fixable Near-IR Dead Cell Stain Kit (Thermo Fisher Scientific Inc.) and an anti-CD19 antibody (Beckman Coulter Inc.) were added to the cells, which were then left standing at 4° C. for 30 minutes. The cells were washed twice with PBS containing 5% FBS, then adjusted to a concentration of 1×10⁶ cells/mL with PBS containing 5% FBS, added at a concentration of 100 μL/well to a 96-well U-bottomed microplate, and centrifuged to remove a supernatant. […] The cells were washed twice with PBS containing 5% FBS. Then, Penta-His Alexa Fluor 488 (Qiagen N.V.) diluted with PBS containing 5% FBS was added at a concentration of 30 μL/well, and the plate was left standing at 4° C. for 30 minutes. The cells were washed twice with PBS containing 5% FBS and then resuspended in PBS containing 5% FBS, followed by detection using a flow cytometer (FACSCanto™ II; Becton, Dickinson and Company). The data was analyzed using Flowjo (Tree Star Inc.). The mean fluorescence intensity (MFI) of Alexa Fluor 488 in a fraction free of dead cells and CD19-positive cells was calculated. The MFI value of the scFv-unsupplemented sample was subtracted from the MFI value of the scFv-supplemented sample to calculate a relative value of MFI (rMFI).

[5] = molecular target: T2, cynomolgus monkey CD3 on cynomolgus …; experiment: flow cytometry on cynomolgus monkey PBMC, Penta-His Alexa Fluor 488 detection, rMFI
[6] = molecular target: T1, recombinant human TROP-2/human IgG Fc …; experiment: SPR (BIAcore 3000), TROP-2/Fc captured on anti-human IgG(Fc), bispecific as analyte, 1:1 binding model
Procedure: The bispecific molecule was assayed for its binding to TROP2 using BIAcore 3000 (GE Healthcare Bio-Sciences Corp.) by the capture method, which involves capturing the antigen by an anti-human IgG antibody and assaying the bispecific molecule as an analyte. The antigen used was recombinant human TROP-2/human IgG Fc fused form (R&D Systems, Inc.). Approximately 2000 RU of the anti-human IgG(Fc) antibody (Human Antibody Capture Kit, GE Healthcare Bio-Sciences Corp.) was covalently bound to a sensor chip CM5 (GE Healthcare Bio-Sciences Corp.) by the amine coupling method. Similarly, this antibody was immobilized onto a reference cell. The running buffer used was HBS-P (10 mM HEPES (pH 7.4), 0.15 M NaCl, and 0.005% Surfactant P20). The bispecific molecule was prepared at a 2-fold dilution ratio from 200 nM to 1 nM. A 1 μg/ml solution of the antigen was added onto the anti-human IgG(Fc) antibody-immobilized chip for approximately […]. Then, each concentration of the bispecific molecule was added at a flow rate of 30 μl/min for 300 seconds. Subsequently, the dissociation phase was monitored for 600 seconds. A 3 M magnesium chloride solution was added as a regenerating solution for 30 seconds. The data was analyzed using the 1:1 binding model of analytical software (BIAevaluation software, version 4.1.1) to calculate an association rate constant (ka), a dissociation rate constant (kd), and a dissociation constant (KD; KD=kd/ka).

human CD3 on human PBMC [7] = molecular target: T3, human CD3 on human PBMC; experiment: flow cytometry on human PBMC (dead cells and CD19-positive cells excluded), Penta-His Alexa Fluor 488 detection, rMFI

| Binder | binding result [1] | binding result (human CD3 on human PBMC [2]) | Kd [3] [nM] | binding result (human CD3 on human PBMC [4]) | also measured |
| --- | --- | --- | --- | --- | --- |
| C3E-7091 (CDR modified humanized anti-CD3 scFv) (scFv, C3E-7079 with glycine for aspartic acid at position 52 of the VL; the change is already in the entry) scFv: GEVQLVESGGGLVQPGGSLRLSCAASGVTFNYYGMSWIRQAPGKGLEWVASITSSGGRIYYPDSVKGRFTISRENTQKTLYLQMNSLRAEDTAVYYCTLDGRDGWVAYWGQGTLVTVSSGGGGSGGGGSGGGGSNFMLTQPHSVSESPGKTVTISCKRNTGNIGSNYVNWYQQHEGSSPTTIIYRGDKRPDGVSDRFSGSIDRSSKSASLTISNLKTEDEADYFCQSYSSGFIFGGGTKLTVLGAAAGAGGDYKDDDDKGAAAHHHHHH | binds | binds |  |  |  |
| C3E-7092 (CDR modified humanized anti-CD3 scFv) (scFv, C3E-7079 with glutamine for aspartic acid at position 52 of the VL; the change is already in the entry) scFv: GEVQLVESGGGLVQPGGSLRLSCAASGVTFNYYGMSWIRQAPGKGLEWVASITSSGGRIYYPDSVKGRFTISRENTQKTLYLQMNSLRAEDTAVYYCTLDGRDGWVAYWGQGTLVTVSSGGGGSGGGGSGGGGSNFMLTQPHSVSESPGKTVTISCKRNTGNIGSNYVNWYQQHEGSSPTTIIYRQDKRPDGVSDRFSGSIDRSSKSASLTISNLKTEDEADYFCQSYSSGFIFGGGTKLTVLGAAAGAGGDYKDDDDKGAAAHHHHHH | binds | binds |  |  |  |
| C3E-7095 (CDR modified humanized anti-CD3 scFv) (scFv, C3E-7079 with alanine for aspartic acid at position 52 of the VL; the change is already in the entry) scFv: GEVQLVESGGGLVQPGGSLRLSCAASGVTFNYYGMSWIRQAPGKGLEWVASITSSGGRIYYPDSVKGRFTISRENTQKTLYLQMNSLRAEDTAVYYCTLDGRDGWVAYWGQGTLVTVSSGGGGSGGGGSGGGGSNFMLTQPHSVSESPGKTVTISCKRNTGNIGSNYVNWYQQHEGSSPTTIIYRADKRPDGVSDRFSGSIDRSSKSASLTISNLKTEDEADYFCQSYSSGFIFGGGTKLTVLGAAAGAGGDYKDDDDKGAAAHHHHHH | binds | binds |  |  |  |
| C3E-7094 (CDR modified humanized anti-CD3 scFv) (scFv, C3E-7079 with serine for aspartic acid at position 52 of the VL; the change is already in the entry) scFv: GEVQLVESGGGLVQPGGSLRLSCAASGVTFNYYGMSWIRQAPGKGLEWVASITSSGGRIYYPDSVKGRFTISRENTQKTLYLQMNSLRAEDTAVYYCTLDGRDGWVAYWGQGTLVTVSSGGGGSGGGGSGGGGSNFMLTQPHSVSESPGKTVTISCKRNTGNIGSNYVNWYQQHEGSSPTTIIYRSDKRPDGVSDRFSGSIDRSSKSASLTISNLKTEDEADYFCQSYSSGFIFGGGTKLTVLGAAAGAGGDYKDDDDKGAAAHHHHHH | binds | binds |  |  |  |
| C3E-7093 (CDR modified humanized anti-CD3 scFv) (scFv, C3E-7079 with asparagine for aspartic acid at position 52 of the VL; the change is already in the entry) scFv: GEVQLVESGGGLVQPGGSLRLSCAASGVTFNYYGMSWIRQAPGKGLEWVASITSSGGRIYYPDSVKGRFTISRENTQKTLYLQMNSLRAEDTAVYYCTLDGRDGWVAYWGQGTLVTVSSGGGGSGGGGSGGGGSNFMLTQPHSVSESPGKTVTISCKRNTGNIGSNYVNWYQQHEGSSPTTIIYRNDKRPDGVSDRFSGSIDRSSKSASLTISNLKTEDEADYFCQSYSSGFIFGGGTKLTVLGAAAGAGGDYKDDDDKGAAAHHHHHH | binds | binds |  |  |  |
| C3E-7035 (humanized anti-CD3 scFv) (scFv) scFv: GEVQLVESGGGLVQPGGSLRLSCAASGVTFNYYGMSWIRQAPGKGLEWVASITNSGGRIYYPDSVKGRFTISRENTQKTLYLQMNSLRAEDTAVYYCTLDGRDGWVAYWGQGTLVTVSSGGGGSGGGGSGGGGSMAQAVLTQPSSVSGVPGQRVTISCKRNTGNIGSNYVNWYQQLPGTAPKLLIYRDDKRPSGVPDRFSGSKSGTSASLAITGFQAEDEADYYCQSYSSGFIFGGGTKLTVLGAAAGAGGDYKDDDDKGAAAHHHHHH | binds |  | 22 | binds |  |
| C3E-7036 (humanized anti-CD3 scFv) (scFv) scFv: GEVQLVESGGGLVQPGGSLRLSCAASGVTFNYYGMSWIRQAPGKGLEWVASITNSGGRIYYPDSVKGRFTISRENTQKTLYLQMNSLRAEDTAVYYCTLDGRDGWVAYWGQGTLVTVSSGGGGSGGGGSGGGGSNFMLTQPSSVSGVPGQRVTISCTGNTGNIGSNYVNWYQQLPGTAPKLLIYRDDKRPSGVPDRFSGSKSGTSASLAITGFQAEDEADYYCQSYSSGFIFGGGTKLTVLGAAAGAGGDYKDDDDKGAAAHHHHHH | binds |  | 25 | binds |  |
| C3E-7085 (CDR modified humanized anti-CD3 scFv) (scFv, C3E-7036 with arginine for asparagine at position 53 of the VH; the change is already in the entry) scFv: GEVQLVESGGGLVQPGGSLRLSCAASGVTFNYYGMSWIRQAPGKGLEWVASITRSGGRIYYPDSVKGRFTISRENTQKTLYLQMNSLRAEDTAVYYCTLDGRDGWVAYWGQGTLVTVSSGGGGSGGGGSGGGGSNFMLTQPSSVSGVPGQRVTISCTGNTGNIGSNYVNWYQQLPGTAPKLLIYRDDKRPSGVPDRFSGSKSGTSASLAITGFQAEDEADYYCQSYSSGFIFGGGTKLTVLGAAAGAGGDYKDDDDKGAAAHHHHHH | binds | binds |  |  |  |
| T2C-0006 (HT1-11 scFv/C3E-7036 bispecific molecule) (bispecific antibody, Tandem scFv; also called anti-TROP2-CD3 bispecific molecule) GQVQLVQSGAEVKKPGASVKVSCKASGYTFTTAGMQWVRQAPGQGLEWMGWINTHSGVPKYAEDFKGRVTISADTSTSTAYLQLSSLKSEDTAVYYCARSGFGSSYWYFDVWGQGTLVTVSSGGGGSGGGGSGGGGSDIQMTQSPSSLSASVGDRVTITCKASQDVSTAVAWYQQKPGKAPKLLIYSASYRYTGVPSRFSGSGSGTDFTLTISSLQPEDFAVYYCQQHYITPLTFGQGTKLEIKRTGGGGSEVQLVESGGGLVQPGGSLRLSCAASGVTFNYYGMSWIRQAPGKGLEWVASITNSGGRIYYPDSVKGRFTISRENTQKTLYLQMNSLRAEDTAVYYCTLDGRDGWVAYWGQGTLVTVSSGGGGSGGGGSGGGGSNFMLTQPSSVSGVPGQRVTISCTGNTGNIGSNYVNWYQQLPGTAPKLLIYRDDKRPSGVPDRFSGSKSGTSASLAITGFQAEDEADYYCQSYSSGFIFGGGTKLTVLGAAAGAGGDYKDDDDKGAAAHHHHHH |  |  |  |  | binding result [5]: binds; Kd [6]: 9.3 nM; binding result (human CD3 on human PBMC [7]): binds |
| C3E-3007 scFv (humanized OKT3 scFv) (scFv) scFv: QVQLVQSGAESKKPGASVKVSCKASGYTFTRYTMHWVRQAPGQGLEWMGYINPSRGYTNYNQKFKDRVTITADKSTSTAYMELSSLRSEDTAVYYCARYYDDHYCLDYWGQGTLVTVSSGGGGSGGGGSGGGGSQIQMTQSPSSLAVSLGERATITCSASSSVSYMNWYQQKPGKAPKRWIYDTSKLASGVPDRFSGSGSGTDFTLTISSLQAEDVATYYCQQWSSNPFTFGQGTKVEIKRGASAAAGSGGDYKDDDDKGAAAHHHHHH |  |  | 400 | binds |  |

— patent US20190359712A1 (Daiichi Sankyo, published 2019)
